# Experimental data as given in patent US20190328900A1 (GlaxoSmithKline, published 2019).
# Values joined by “and” are separate entries in the source; they are usually repeats but may differ in a detail not shown here. Equal values may be shown once.
# B1: VRC01-SA antibody-drug conjugate (antibody, human IgG1, V domains shown)
# VH: QVQLVQSGGQMKKPGESMRISCRASGYEFIDCTLNWIRLAPGKRPEWMGWLKPRGGAVNYARPLQGRVTMTRDVYSDTAFLELRSLTVDDTAVYFCTRGKNCDYNWDFEHWGRGTPVIVSS
# VL: EIVLTQSPGTLSLSPGETAIISCRTSQYGSLAWYQQRPGQAPRLVIYSGSTRAAGIPDRFSGSRWGPDYNLTISNLESGDFGVYYCQQYEFFGQGTKVQVDI
# modifications: payload-linker SA conjugated to lysines; sites and chain not stated; payload-linker SA (short linker payload A, succinimidyl ester) conjugated to lysines; sites and chain not stated; MS DAR 3.0
# B2: VRC01-LA antibody-drug conjugate (antibody, human IgG1, V domains shown)
# VH: B1 VH
# VL: B1 VL
# modifications: payload-linker LA conjugated to lysines; sites and chain not stated; payload-linker LA (long linker payload A, succinimidyl ester) conjugated to lysines; sites and chain not stated; MS DAR 3.4
# B3: VRC01 broadly neutralizing antibody (antibody, human IgG1, V domains shown)
# VH: B1 VH
# VL: B1 VL
# B4: VRC01-SB antibody-drug conjugate (antibody, human IgG1, V domains shown)
# VH: B1 VH
# VL: B1 VL
# modifications: payload-linker SB conjugated to lysines; sites and chain not stated; payload-linker SB (short linker payload B, succinimidyl ester) conjugated to lysines; sites and chain not stated; MS DAR 3.9
# B5: VRC01-LB antibody-drug conjugate (antibody, human IgG1, V domains shown)
# VH: B1 VH
# VL: B1 VL
# modifications: payload-linker LB conjugated to lysines; sites and chain not stated; payload-linker LB (long linker payload B, succinimidyl ester) conjugated to lysines; sites and chain not stated; MS DAR 3.8
# B6: VRC01-LA-SB dual-payload antibody-drug conjugate (antibody, human IgG1, V domains shown)
# VH: B1 VH
# VL: B1 VL
# modifications: payload-linkers LA and SB conjugated to lysines; sites and chain not stated; payload-linkers LA and SB conjugated to lysines; sites and chain not stated; MS DAR 1.6 (LA) and 1.3
# B7: VRC01-LA-LB dual-payload antibody-drug conjugate (antibody, human IgG1, V domains shown)
# VH: B1 VH
# VL: B1 VL
# modifications: payload-linkers LA and LB conjugated to lysines; sites and chain not stated; payload-linkers LA and LB conjugated to lysines; sites and chain not stated; MS DAR 1.6 (LA) and 1.2 (LB)
# Biological target: T1, HIV gp160 envelope glycoprotein on pseudotyped virus (clone not named) (HIV)
# Test: cell-based or functional assay
Binder,"IC50 (N = 1), pseudotyped virus (PSV) infection, luciferase","IC50 (N = 2), pseudotyped virus (PSV) infection, luciferase"
B1,~2.7 nM and 0.418 µg/mL,0.226 µg/mL and ~1.5 nM
B2,0.0753 µg/mL and ~0.5 nM,0.0413 µg/mL and ~0.27 nM
B3,~667 nM,~667 nM
B4,0.617 µg/mL and ~4 nM,0.772 µg/mL
B5,0.526 µg/mL and ~3.4 nM,~1.9 nM

# Biological target: T1, HIV gp160 envelope glycoprotein on …
# Test: cell-based or functional assay
# Remark: another data set of the same source
Binder,"IC50 (N = 1), pseudotyped virus (PSV) infection, luciferase","IC50 (N = 2), pseudotyped virus (PSV) infection, luciferase"
B6,0.104 µg/mL and ~0.7 nM,0.106 µg/mL and ~0.7 nM
B7,0.154 µg/mL,0.107 µg/mL and ~0.7 nM
